Results reported in patent US20210238276A1 (INTEGRAL MOLECULAR, published 2021).

What was measured:
Assay in all cases: flow cytometry, alanine-scan library in HEK-293T, with cytochalasin B
[1] = biological target: T1, hsGLUT4 N304A (human, UniProt P14672 1-509)
T1 sequence: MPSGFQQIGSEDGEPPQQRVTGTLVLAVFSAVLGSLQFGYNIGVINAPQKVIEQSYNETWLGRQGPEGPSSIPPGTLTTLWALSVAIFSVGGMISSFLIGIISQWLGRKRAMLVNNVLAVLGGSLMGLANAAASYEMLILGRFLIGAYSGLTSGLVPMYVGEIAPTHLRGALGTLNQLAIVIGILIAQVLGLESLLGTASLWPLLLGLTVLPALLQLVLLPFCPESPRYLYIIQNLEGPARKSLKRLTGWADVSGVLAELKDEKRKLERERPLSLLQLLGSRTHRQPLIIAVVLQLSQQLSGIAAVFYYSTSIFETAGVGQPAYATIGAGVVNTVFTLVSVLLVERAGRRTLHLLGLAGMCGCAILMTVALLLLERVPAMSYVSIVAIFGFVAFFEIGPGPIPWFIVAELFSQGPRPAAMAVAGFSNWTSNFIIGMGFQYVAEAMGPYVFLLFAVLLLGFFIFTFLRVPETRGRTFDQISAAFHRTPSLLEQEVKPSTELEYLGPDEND
Procedure: (§1) Because of the state-dependence of the isolated MAbs, we next wished to understand the mechanism by which each MAb could recognize GLUT4 in its different conformations. The residues required for binding of each MAb were determined using shotgun mutagenesis comprehensive alanine scanning (Davidson E & Doranz B J (2014) A High-Throughput Shotgun Mutagenesis Approach to Mapping B-cell Antibody Epitopes. Immunology, which is hereby incorporated by reference in its entirety). All residues of hsGLUT4 were individually mutated to alanine, with existing alanines changed to serines. Mutations were obtained for 508 of the 509 residues of GLUT4 (excluding the initiating methionine). The entire mutation library was transfected into human HEK-293T cells in a 384-well array format (one clone per well) and assessed for immunoreactivity using high-throughput flow cytometry.
(§2) HEK-293T cells were transfected by CaPO₄ with plasmids in 6-well culture plates (Falcon) at 750,000 cells/well. At 48 hours post transfection, cells were stained with anti-V5 and anti-GLUT4 MAbs (purified scFv, 2 μg/ml) followed by biotinylated goat anti-mouse or human antibody (1:500) and streptavidin-PerCP (1:500). Fluorescence was detected using an Intellicyt high-throughput flow cytometer (HTFC; Intellicyt, Albuquerque, N. Mex.). For cell permeabilization, cells were treated with saponin at 0.1% in PBS for 20 minutes. To discriminate intact (live) and permeabilized (dead) cells without the use of detergent, propidium iodide (PI) was added to HEK-293T cells at 1 ug/ml just prior to flow cytometry. Where indicated, cytochalasin B (Sigma) was used at a final concentration of 10 uM and phloretin (Sigma) was used at a final concentration of 100 uM, each added in 10% NGS for 30 minutes prior to antibody staining as well as included with the primary antibody.

[2] = biological target: T2, hsGLUT4 L61A (human, UniProt P14672 1-509)
T2 sequence: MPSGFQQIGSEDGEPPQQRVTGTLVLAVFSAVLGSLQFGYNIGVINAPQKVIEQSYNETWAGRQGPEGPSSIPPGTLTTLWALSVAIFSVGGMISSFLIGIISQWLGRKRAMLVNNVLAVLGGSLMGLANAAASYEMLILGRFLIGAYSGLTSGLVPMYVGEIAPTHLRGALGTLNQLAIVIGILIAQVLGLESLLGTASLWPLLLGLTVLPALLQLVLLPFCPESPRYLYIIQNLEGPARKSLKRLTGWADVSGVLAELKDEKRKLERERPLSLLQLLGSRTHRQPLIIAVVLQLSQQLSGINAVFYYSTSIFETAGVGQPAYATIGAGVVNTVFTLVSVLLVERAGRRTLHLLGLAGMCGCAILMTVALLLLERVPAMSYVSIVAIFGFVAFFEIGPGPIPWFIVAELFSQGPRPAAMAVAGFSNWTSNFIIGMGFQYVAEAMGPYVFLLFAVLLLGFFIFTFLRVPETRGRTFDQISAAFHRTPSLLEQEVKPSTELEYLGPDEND
Procedure: as §1, §2

[3] = biological target: T3, hsGLUT4 I163A (human, UniProt P14672 1-509)
T3 sequence: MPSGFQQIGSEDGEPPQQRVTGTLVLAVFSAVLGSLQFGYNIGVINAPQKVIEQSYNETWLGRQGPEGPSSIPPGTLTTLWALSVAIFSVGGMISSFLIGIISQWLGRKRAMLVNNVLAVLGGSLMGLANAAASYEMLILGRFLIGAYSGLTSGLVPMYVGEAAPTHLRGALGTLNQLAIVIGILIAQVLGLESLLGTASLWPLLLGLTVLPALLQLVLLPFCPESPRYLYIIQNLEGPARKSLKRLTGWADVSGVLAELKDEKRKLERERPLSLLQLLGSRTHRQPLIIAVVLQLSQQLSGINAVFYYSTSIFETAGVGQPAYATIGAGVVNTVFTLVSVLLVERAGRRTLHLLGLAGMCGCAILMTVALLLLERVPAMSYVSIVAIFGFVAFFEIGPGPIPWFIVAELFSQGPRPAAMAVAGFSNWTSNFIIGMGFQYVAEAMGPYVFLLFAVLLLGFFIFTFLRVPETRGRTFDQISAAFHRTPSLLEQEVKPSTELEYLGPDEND
Procedure: as §1, §2

[4] = biological target: T4, hsGLUT4 L247A (human, UniProt P14672 1-509)
T4 sequence: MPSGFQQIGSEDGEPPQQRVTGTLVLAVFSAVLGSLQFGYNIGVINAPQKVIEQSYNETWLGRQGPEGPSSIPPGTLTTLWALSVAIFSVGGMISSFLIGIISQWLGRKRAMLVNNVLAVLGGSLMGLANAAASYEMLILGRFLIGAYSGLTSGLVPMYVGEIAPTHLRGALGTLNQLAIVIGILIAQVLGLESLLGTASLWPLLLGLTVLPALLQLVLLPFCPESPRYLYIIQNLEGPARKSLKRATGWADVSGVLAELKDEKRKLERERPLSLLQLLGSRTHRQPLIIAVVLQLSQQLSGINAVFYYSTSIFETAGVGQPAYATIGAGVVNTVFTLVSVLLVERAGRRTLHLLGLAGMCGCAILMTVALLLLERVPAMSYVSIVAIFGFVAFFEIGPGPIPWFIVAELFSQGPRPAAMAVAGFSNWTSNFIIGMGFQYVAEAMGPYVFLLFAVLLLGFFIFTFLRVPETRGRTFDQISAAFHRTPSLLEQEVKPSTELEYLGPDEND
Procedure: as §1, §2

% of binding to wild type GLUT4 [1]: 112%
% of binding to wild type GLUT4 [2]: 69%
% of binding to wild type GLUT4 [3]: 28%
% of binding to wild type GLUT4 [4]: 15%
B1: AB102 (Fc fusion)
scFv: ALTQPSSVSANLGGTVKITCSGGGSYGYGWYQQKSPGSAPVTVIYSNDQRPSDIPSRFSGSKSGSTATLTITGVRAEDEAIYYCGSTDSDYVGIFGAGTTLTVLGQSSRSSGGGGSSGGGGSAVTLDESGGGLQTPGGTLSLVCKASGFDFSSYATIWVRQAPGKGLEWVAGISGTGTGSSTGYAPAVKGRATISRDNGQSTVRLQLNNLRAEDTGSYFCAKSTGYGDSWIYPDSIDAWGHGTEVIVSS
notes: also called MAb AB102; not shown: Fc fragment of human IgG1, cloned in frame with the scFv
